# Test results: publication PMC4949242, “Conjugative DNA Transfer Is Enhanced by Plasmid R1 Partitioning Proteins”
# Numbering of substitutions follows the chain as printed. In names and notes the source's numbering stands.
# T1: ParR (Escherichia coli plasmid R1, UniProt P11906 1-117)
# T1 sequence: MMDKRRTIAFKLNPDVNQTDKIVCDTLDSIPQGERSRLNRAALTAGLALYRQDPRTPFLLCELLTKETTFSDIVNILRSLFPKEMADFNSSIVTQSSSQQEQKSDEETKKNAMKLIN
# T2: TraIN308 (relaxase domain) (Escherichia coli plasmid R1, UniProt Q6TDU5 1-308)
# T2 sequence: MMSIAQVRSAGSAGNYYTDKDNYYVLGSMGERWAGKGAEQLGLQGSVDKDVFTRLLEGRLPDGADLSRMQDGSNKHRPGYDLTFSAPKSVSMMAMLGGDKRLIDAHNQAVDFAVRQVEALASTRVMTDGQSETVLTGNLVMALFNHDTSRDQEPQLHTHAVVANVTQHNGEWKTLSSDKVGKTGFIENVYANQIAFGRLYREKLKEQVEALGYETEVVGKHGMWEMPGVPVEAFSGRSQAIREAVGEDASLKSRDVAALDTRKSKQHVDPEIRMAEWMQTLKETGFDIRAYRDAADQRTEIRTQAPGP
# T3: TraIΔN308 (helicase domain) (Escherichia coli plasmid R1, UniProt Q6TDU5 309-1756, del1-308)
# T3 sequence: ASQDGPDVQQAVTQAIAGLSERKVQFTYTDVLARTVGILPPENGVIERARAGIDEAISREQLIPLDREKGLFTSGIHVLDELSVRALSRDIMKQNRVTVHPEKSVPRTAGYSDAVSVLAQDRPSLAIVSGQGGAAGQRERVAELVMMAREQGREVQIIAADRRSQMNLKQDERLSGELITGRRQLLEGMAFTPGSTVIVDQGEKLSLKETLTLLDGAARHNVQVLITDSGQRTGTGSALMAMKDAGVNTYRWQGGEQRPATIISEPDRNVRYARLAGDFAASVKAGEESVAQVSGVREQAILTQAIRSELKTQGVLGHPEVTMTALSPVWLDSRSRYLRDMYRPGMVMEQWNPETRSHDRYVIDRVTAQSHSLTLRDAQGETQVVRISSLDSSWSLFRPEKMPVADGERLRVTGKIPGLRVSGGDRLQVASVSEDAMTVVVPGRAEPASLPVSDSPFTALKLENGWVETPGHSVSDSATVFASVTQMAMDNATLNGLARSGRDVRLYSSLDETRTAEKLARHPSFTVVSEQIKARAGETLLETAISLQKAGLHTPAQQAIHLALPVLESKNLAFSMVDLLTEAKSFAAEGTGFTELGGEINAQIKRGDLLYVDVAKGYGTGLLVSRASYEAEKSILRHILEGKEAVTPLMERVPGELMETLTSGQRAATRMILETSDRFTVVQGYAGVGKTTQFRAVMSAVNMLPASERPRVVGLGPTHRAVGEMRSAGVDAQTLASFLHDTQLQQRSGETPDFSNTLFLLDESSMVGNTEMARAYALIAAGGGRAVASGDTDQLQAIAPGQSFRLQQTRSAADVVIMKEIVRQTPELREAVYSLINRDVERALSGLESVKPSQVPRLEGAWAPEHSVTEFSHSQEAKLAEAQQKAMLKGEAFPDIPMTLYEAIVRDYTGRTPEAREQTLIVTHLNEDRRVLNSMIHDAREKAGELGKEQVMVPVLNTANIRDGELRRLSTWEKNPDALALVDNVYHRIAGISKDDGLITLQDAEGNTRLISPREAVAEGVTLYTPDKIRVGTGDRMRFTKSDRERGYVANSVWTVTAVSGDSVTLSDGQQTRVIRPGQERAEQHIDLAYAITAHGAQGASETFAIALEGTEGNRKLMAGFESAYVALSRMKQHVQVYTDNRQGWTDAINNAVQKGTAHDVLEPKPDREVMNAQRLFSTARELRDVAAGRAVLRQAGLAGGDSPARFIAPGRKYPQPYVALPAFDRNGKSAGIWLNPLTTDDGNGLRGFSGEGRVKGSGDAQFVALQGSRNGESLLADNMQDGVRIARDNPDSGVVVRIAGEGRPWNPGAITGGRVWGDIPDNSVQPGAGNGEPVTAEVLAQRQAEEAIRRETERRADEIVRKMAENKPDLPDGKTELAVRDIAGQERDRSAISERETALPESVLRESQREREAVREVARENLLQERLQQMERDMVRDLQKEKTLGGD
# B1: dsparC (iterons 1 and 2) (dsDNA)
# DNA 1: AAACAAAACCCAAAAACAACCC
# DNA 2: GGGTTGTTTTTGGGTTTTGTTT
# B2: ssoriT (ssDNA)
# DNA: ACCAAAAGCACCACACCCCACGCAAAAACAAG
# B3: oriT17* (ssDNA)
# DNA: TTTGCGTGGGGTGTGGT
# B4: ssrnd (ssDNA)
# DNA: CGAACGAGCAGTTGTTTCAGCG
# B5: ssparC (ssDNA)
# DNA: AAACAAAACCCAAAAACAACCC
# B6: ParM with C-terminal FLAG epitope (pMS-CFLAGparM) (natural protein)
# chain: MLVFIDDGSTNIKLQWQESDGTIKQHISPNSFKREWAVSFGDKKVFNYTLNGEQYSFDPISPDAVVTTNIAWQYSDVNVVAVHHALLTSGLPVSEVDIVCTLPLTEYYDRNNQPNTENIERKKANFRKKITLNGGDTFTIKDVKVMPESIPAGYEVLQELDELDSLLIIDLGGTTLDISQVMGKLSGISKIYGDSSLGVSLVTSAVKDALSLARTKGSSYLADDIIIHRKDNNYLKQRINDENKISIVTEAMNEALRKLEQRVLNTLNEFSGYTHVMVIGGGAELICDAVKKHTQIRDERFFKTNNSQYDLVNGMYLIGN
# B7: CreParMK123A (Cre fused to ParM residues 2-320 with K123A) (protein)
# chain: LVFIDDGSTNIKLQWQESDGTIKQHISPNSFKREWAVSFGDKKVFNYTLNGEQYSFDPISPDAVVTTNIAWQYSDVNVVAVHHALLTSGLPVSEVDIVCTLPLTEYYDRNNQPNTENIERKAANFRKKITLNGGDTFTIKDVKVMPESIPAGYEVLQELDELDSLLIIDLGGTTLDISQVMGKLSGISKIYGDSSLGVSLVTSAVKDALSLARTKGSSYLADDIIIHRKDNNYLKQRINDENKISIVTEAMNEALRKLEQRVLNTLNEFSGYTHVMVIGGGAELICDAVKKHTQIRDERFFKTNNSQYDLVNGMYLIGN
# B8: CreParMS39A (Cre fused to ParM residues 2-320 with S39A) (protein)
# chain: B7 chain with S38A, A122K
# What was measured:
# [1] = target: TraI, relaxase/helicase of plasmid R1 (plasmid R1 (R1-16), in E. coli)
# ParR [2] = target: T1, ParR; assay: EMSA; shift from 5:1 protein/DNA molar ratio; EMSA: 10 mM Tris-HCl pH 7.5, 50 mM NaCl, 0.005% NP-40, 1 mM DTT, 1 mM EDTA, 25 C, 20 min (DNA 20 nM in Methods, 4 nM in Fig 5 legend); fluorescence: 20 mM Tris-HCl pH 7.5, 100 mM NaCl, 1 mM EDTA, 25 C, 4 nM oriT17*, 0-100 nM TraI; conditions: protein: recombinant; tags: none stated; chain copies: 2; label: 3'-TAMRA on strand 1; blunt
# ParR [3] = target: T1, ParR; assay: EMSA; ParR 20-320 nM; EMSA: 10 mM Tris-HCl pH 7.5, 50 mM NaCl, 0.005% NP-40, 1 mM DTT, 1 mM EDTA, 25 C, 20 min (DNA 20 nM in Methods, 4 nM in Fig 5 legend); fluorescence: 20 mM Tris-HCl pH 7.5, 100 mM NaCl, 1 mM EDTA, 25 C, 4 nM oriT17*, 0-100 nM TraI; conditions: protein: recombinant; tags: none stated; chain copies: 2; label: 3'-TAMRA
# TraI = TraI (Escherichia coli plasmid R1, UniProt Q6TDU5 1-1756); assay: fluorescence intensity titration; unit not printed with value; nM from titration range; EMSA: 10 mM Tris-HCl pH 7.5, 50 mM NaCl, 0.005% NP-40, 1 mM DTT, 1 mM EDTA, 25 C, 20 min (DNA 20 nM in Methods, 4 nM in Fig 5 legend); fluorescence: 20 mM Tris-HCl pH 7.5, 100 mM NaCl, 1 mM EDTA, 25 C, 4 nM oriT17*, 0-100 nM TraI; conditions: protein: recombinant; label: 3'-TAMRA
# [4] = target: T2, TraIN308 (relaxase domain); assay: as above; conditions: protein: recombinant; label: 3'-TAMRA
# [5] = target: T3, TraIΔN308 (helicase domain); assay: as above; conditions: protein: recombinant; label: 3'-TAMRA
# [6] = target: TraD, type IV coupling protein (T4CP) of plasmid R1 (plasmid R1 (R1-16), in E. coli)
molecule,measurement,setting,value
ParR with C-terminal FLAG epitope (pMS-CFLAGparR) (natural protein),"TraI (25 nM) relaxase activity on supercoiled oriT plasmid pDE100 (4 nM), percent open circular DNA, with increasing purified untagged ParR; maximum at 10 nM ParR",[1],4 fold
B1,binding result,ParR [2],binds
B2,binding result,ParR [3],no binding
B3,Kd,TraI,4.05 ± 0.32 nM
same,Kd,[4],0.87 ± 0.19 nM
same,Kd,[5],82.6 ± 13.1 nM
B4,binding result,ParR [3],no binding
B5,binding result,ParR [3],no binding
B6,"TraI (25 nM) relaxase activity on supercoiled oriT plasmid pDE100 (4 nM), percent open circular DNA, with increasing purified untagged ParM; maximum at 20-30 nM ParM",[1],3 fold
B7,"translocation of CreParMK123A to recipient cells by the R1-16 T4SS (CRAfT), percent of wild type Cre-ParM (% of wild type levels)",[6],24.5
B8,"translocation of CreParMS39A to recipient cells by the R1-16 T4SS (CRAfT), percent of wild type Cre-ParM (% of wild type levels)",[6],59
